The chains are these.
B1: LC3C (microtubule-associated protein 1A/1B light chain 3C) (natural protein, human, UniProt Q9BXW4 1-126, looked up)
chain: MPPPQKIPSVRPFKQRKSLAIRQEEVAGIRAKFPNKIPVVVERYPRETFLPPLDKTKFLVPQELTMTQFLSIIRSRMVLRATEAFYLLVNNKSLVSMSATMAEIYRDYKDEDGFVYMTYASQETFG
B2: p62 WT-AIM peptide (peptide)
peptide: SGGDDDWTHLSS
notes: also called p62 AIM; source: synthetic peptide; bought: Genosphere Biotechnologies and Peptide Synthetics
B3: p62 L341V-AIM peptide (peptide)
peptide: SGGDDDWTHVSS
notes: also called L341V-mutant peptide; mutant AIM; source: synthetic peptide; bought: Genosphere Biotechnologies and Peptide Synthetics

Conditions in all cases: both partners purified
The target of test [1] is B2. The test can be described thus: native MS; ESI-MS competition binding under nondenaturing conditions: each hATG8 titrated into an equimolar mixture of WT-AIM and L341V-AIM peptides (each 10 μM); read-out is the ratio of peak intensities of unbound WT and L341V peptides; ratios given for 20 μM hATG8; two independent experiments.
The target in test [2] is LC3A (microtubule-associated protein 1A/1B light chain 3A) (human, UniProt Q9H492 1-121). The experiment in a line: ITC; MicroCal VP-ITC, 30 °C; protein 10 μM in the cell, 10 μl injections of peptide (100-150 μM); 25 mM potassium phosphate, 150 mM NaCl, pH 7.0; no reducing agent; one site binding model; two independent measurements. A general note: In ITC the heat of successive injections is recorded.

Test [3] deals with B1. The test is described as above.
Test [4] concerns the target T1, GABARAPL2 (human, UniProt P60520 1-117).
T1 construct: GABARAPL2, human ATG8 protein of the GABARAP subfamily; 15N-labelled (13C,15N for assignment) in M9 minimal medium for the NMR experiments; Cloned into pGEX-4T-1 between BamHI and XhoI; thrombin cleavage may leave a few vector residues at the N-terminus (surmised); also called hATG8; source: E. coli BL21 (DE3), purified (Glutathione Sepharose, thrombin cleavage, ion exchange, gel filtration); not …
Described as above.

For test [5], the target named is GABARAPL1 (human, UniProt Q9H0R8 1-117). The description is as above.
For test [6], the target named is LC3B (microtubule-associated protein 1A/1B light chain 3B) (human, UniProt Q9GZQ8 1-120). The description is as above.

T1 sequence (P60520 whole entry): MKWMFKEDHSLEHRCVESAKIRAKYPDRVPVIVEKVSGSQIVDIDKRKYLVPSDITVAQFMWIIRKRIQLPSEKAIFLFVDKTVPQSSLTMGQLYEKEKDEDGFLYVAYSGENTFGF
Chain of GABARAPL1 (Q9H0R8 whole entry): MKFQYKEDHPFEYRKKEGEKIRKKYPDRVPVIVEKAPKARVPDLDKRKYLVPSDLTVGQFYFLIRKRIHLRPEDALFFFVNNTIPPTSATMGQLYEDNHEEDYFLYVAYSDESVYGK

Regarding B1, the “ratio of unbound WT:L341V AIM peptides at 20 μM hATG8 (reference: L341V-AIM)” value in test [1] is over 0.95.

With B2, the dissociation constant Kd in test [2] is 4.55 µM; in test [3], 16.8 µM; in test [5] it was 3.23 µM; in test [6], 3.83 µM. Moreover, the dH in test [2] was -17.9 kcal/mol; in test [3], -3.59 kcal/mol; in test [4], -2.43 kcal/mol; in test [5] it was -5.61 kcal/mol; in test [6], -10.7 kcal/mol. Besides, the “stoichiometry N” value in test [2] is 1.05; in test [3], 0.82; in test [4] it was 1.07; in test [5], 0.86.

With B3, the dH was -6.3 kcal/mol in test [2], -5.38 kcal/mol in test [3], -4 kcal/mol in test [4] and -5.37 kcal/mol in test [5]. Besides, the “stoichiometry N” value worked out at 0.9 in test [3], 1.03 in test [4] and 0.98 in test [5]. For the same molecule, the dissociation constant (Kd) in test [4] worked out at 6.99 µM; in test [5], 5.78 µM; in test [6] it was 8.47 µM.

What is called Kd is the equilibrium constant for the complex coming apart. Broadly, the stoichiometry N is a count of units in the complex or per binding partner.

The values above are taken from publication PMC8762078 (The Journal of Biological Chemistry, 2021).
